{"source": "paper PMC10956426", "about": "“Lipid-Binding Regions within PKC-Related Serine/Threonine Protein Kinase N1 (PKN1) Required for Its Regulation” (Biochemistry, 2024)", "key": {"[1]": {"target": "the molecule itself", "experiment": "MALDI-TOF mass spectrometry; sinapinic acid matrix in 70% acetonitrile, 0.05% TFA; positive ion-linear mode"}, "[2]": {"target": "the molecule itself", "experiment": "SEC; 25 mL Sephacryl 200 (S-200) column, 20 mM phosphate buffer pH 7.4, 150 mM NaCl, 4 °C; refolded PKN1-(C2); calibrated column"}, "[3]": {"target": "the molecule itself", "experiment": "SEC; Superdex-200 Increase (10/300 GL), 50 mM Tris-HCl pH 7.5, 150 mM NaCl, 0.075% Brij-35; native conditions"}}, "note": "“And” between values parts separate entries of the source, which are not always exact repeats. Identical values can stand only once."}
{"protein": "PKN1-(C2)-(342–605) (domain or fragment, PKC-related serine/threonine protein kinase N1 (PKN1), rat, residues 342-605 (C2-like domain and part of the hinge region), amplified by PCR from rat liver; Cloned between NdeI and XhoI of pET15b; this vector probably adds an N-terminal His tag with a thrombin site, and no cleavage is described; also called PKN1-(342–605); histidine-tagged PKN1 (residues 342–605)) not shown", "values": [{"measurement": "stoichiometry N", "setting": "[1]", "value": 2}, {"measurement": "stoichiometry N", "setting": "[2]", "value": "3 and 4"}]}
{"protein": "PKN1-(25–485) (domain or fragment, PKC-related serine/threonine protein kinase N1 (PKN1), rat, residues 25-485 (HR1 and the AlphaFold-defined C2 region 310-473); The pET15b-PKN1-(25–485) plasmid was synthesized commercially; the vector probably adds an N-terminal His tag, and no cleavage is described; also called histidine-tagged PKN1 (residues 25–485)) not shown", "values": [{"measurement": "stoichiometry N", "setting": "[3]", "value": 3}]}
